The text below walks through data of PMC7761469.

For this experiment, the target named is epidermal growth factor receptor (EGFR) (human (endogenous in LNCaP, DU145 and PC-3)) (UniProt P00533). In words: flow cytometry on cells. In general terms: A flow cytometer gives signals particle by particle.

Turning to targeted toxin EGF-PE40, the fold reduction of binding compared to EGF is 28.6 to 76.1 fold.
